Substrate in the data set: CC1=CC(=O)c2ccccc2C1=O
The data set is described as follows: Chemical redox cycling by DCXR. The note with it: other: redox cycling; quinone varied; 200 μM NADPH fixed; pH 7.0. The format is biochemical, human.

B1: recombinant human DCXR (Homo sapiens) (protein)
chain: MELFLAGRRVLVTGAGKGIGRGTVQALHATGARVVAVSRTQADLDSLVRECPGIEPVCVDLGDWEATERALGSVGPVDLLVNNAAVALLQPFLEVTKEAFDRSFEVNLRAVIQVSQIVARGLIARGVPGAIVNVSSQCSQRAVTNHSVYCSTKGALDMLTKVMALELGPHKIRVNAVNPTVVMTSMGQATWSDPHKAKTMLNRIPLGKFAEVEHVVNAILFLLSDRSGMTTGSTLPVEGGFWAC
For the protein B1, the Michaelis constant (Km) was found to be 365.80 µM, the kcat is 0.022 s⁻¹ and the specificity constant (kcat/Km) was 66.7 M⁻¹ s⁻¹.

By Km is commonly meant the concentration of substrate that gives half-maximal velocity. As a reminder, the kcat is the maximal rate divided by the concentration of active sites. As usually defined, the kcat/Km is the second-order rate constant that governs catalysis at low substrate concentration.

Source of the values: publication PMC5708134.
